Results published in article PMC7832040 (Science translational medicine, 2020).

What was measured:
[1] = molecular target: endogenous CD206 in murine M2-polarized macrophages (BMDMs) (mouse (endogenous in M2 BMDMs)) (UniProt Q61830); assay: cellular thermal shift assay
[2] = molecular target: endogenous CD206 in human M2-polarized macrophages (human (endogenous in M2-polarized macrophages)) (UniProt P22897); assay: cellular thermal shift assay
murine CD206 (murine) = murine CD206 (murine) (UniProt Q61830); assay: MST
[3] = molecular target: mannose receptor CD206, human, recombinant (human) (UniProt P22897); assay: MST
CD206 = molecular target: T1, CD206 (Homo sapiens, UniProt P22897); conditions: xenotransplanted tumors; ref [39]–[41]; cited from earlier work
T1 sequence (P22897 19-1456): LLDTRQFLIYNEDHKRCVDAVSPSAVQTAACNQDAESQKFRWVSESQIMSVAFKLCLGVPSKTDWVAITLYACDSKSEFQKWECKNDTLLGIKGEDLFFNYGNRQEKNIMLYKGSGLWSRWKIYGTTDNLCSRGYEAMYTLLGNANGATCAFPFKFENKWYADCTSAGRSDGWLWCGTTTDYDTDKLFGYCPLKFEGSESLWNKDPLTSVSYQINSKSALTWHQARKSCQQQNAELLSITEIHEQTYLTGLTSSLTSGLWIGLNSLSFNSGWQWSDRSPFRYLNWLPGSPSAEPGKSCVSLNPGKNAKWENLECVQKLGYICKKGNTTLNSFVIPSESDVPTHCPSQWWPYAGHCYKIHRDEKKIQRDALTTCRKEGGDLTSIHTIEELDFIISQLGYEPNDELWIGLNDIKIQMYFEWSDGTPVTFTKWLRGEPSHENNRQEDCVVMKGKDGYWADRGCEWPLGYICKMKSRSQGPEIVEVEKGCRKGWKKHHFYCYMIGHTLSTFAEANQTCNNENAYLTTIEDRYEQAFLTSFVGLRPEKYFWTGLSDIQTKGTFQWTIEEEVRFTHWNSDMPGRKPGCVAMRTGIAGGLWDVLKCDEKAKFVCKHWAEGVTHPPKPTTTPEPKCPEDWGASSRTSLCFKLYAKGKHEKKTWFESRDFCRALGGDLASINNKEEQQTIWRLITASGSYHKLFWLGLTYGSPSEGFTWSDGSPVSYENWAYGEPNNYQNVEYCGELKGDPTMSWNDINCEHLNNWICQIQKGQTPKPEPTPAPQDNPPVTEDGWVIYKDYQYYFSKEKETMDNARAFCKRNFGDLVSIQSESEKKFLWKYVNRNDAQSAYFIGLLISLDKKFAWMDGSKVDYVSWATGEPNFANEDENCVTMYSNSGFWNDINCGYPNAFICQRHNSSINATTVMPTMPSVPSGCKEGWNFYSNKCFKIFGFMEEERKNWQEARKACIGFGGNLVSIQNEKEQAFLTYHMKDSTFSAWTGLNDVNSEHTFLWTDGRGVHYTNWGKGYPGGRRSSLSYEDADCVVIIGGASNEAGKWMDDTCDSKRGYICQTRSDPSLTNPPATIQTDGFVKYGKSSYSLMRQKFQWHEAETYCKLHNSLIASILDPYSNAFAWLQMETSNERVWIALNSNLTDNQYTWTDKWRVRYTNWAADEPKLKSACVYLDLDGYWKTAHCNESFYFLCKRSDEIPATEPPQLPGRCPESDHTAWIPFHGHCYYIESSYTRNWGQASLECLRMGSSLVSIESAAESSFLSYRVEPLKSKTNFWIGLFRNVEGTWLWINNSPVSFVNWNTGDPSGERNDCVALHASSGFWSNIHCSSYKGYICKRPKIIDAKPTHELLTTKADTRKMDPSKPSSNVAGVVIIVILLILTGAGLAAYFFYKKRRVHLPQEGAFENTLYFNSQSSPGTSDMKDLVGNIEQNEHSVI

Sequence of murine CD206 (murine) (Q61830 20-1456): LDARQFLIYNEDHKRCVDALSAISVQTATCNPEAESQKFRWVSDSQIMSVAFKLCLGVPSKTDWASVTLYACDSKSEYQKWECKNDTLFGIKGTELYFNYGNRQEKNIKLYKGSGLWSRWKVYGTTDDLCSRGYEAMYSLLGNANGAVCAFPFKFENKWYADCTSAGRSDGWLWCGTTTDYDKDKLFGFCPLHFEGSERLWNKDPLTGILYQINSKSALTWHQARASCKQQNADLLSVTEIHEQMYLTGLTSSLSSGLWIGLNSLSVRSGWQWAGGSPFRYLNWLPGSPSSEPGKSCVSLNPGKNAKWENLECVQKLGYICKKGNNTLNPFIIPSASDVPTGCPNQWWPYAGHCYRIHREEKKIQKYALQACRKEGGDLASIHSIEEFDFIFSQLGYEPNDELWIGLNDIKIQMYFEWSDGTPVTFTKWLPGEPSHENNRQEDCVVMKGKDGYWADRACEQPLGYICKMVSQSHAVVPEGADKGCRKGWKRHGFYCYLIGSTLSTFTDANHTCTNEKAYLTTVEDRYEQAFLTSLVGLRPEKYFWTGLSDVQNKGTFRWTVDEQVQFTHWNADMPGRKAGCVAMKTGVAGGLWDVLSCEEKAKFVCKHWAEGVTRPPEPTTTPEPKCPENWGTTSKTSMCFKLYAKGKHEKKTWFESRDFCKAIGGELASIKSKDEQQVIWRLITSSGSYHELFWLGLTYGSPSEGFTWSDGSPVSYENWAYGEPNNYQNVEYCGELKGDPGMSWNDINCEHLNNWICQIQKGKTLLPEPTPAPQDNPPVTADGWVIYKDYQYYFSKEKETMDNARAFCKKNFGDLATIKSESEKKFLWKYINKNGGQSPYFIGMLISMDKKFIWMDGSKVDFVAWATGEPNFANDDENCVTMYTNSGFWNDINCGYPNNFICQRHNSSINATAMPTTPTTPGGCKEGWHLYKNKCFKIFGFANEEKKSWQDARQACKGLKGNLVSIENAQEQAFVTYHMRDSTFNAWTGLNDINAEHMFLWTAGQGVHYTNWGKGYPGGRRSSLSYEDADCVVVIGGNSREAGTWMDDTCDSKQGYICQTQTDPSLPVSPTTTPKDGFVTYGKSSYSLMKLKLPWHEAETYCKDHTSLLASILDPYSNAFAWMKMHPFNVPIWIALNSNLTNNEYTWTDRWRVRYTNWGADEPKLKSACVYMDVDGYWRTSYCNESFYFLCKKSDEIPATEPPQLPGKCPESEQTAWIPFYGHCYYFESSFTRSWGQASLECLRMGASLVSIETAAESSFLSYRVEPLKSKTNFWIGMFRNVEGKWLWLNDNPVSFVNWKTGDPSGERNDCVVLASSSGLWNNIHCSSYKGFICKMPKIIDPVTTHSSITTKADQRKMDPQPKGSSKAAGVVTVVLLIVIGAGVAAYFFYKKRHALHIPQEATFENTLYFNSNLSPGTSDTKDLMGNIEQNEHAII
Sequence of endogenous CD206 in murine M2-polarized macrophages (BMDMs) (mouse (endogenous in M2 BMDMs)) (Q61830 20-1456): as above

| Substance | thermostability shift of CD206 (CETSA) [1] | thermostability shift of CD206 (CETSA) [2] | Kd (murine CD206 (murine)) | Kd [3] | delivery of nanoparticles to tumors (CD206) |
| --- | --- | --- | --- | --- | --- |
| RP-182 (peptide) | > 4 ° | > 4 ° | 19 µM | 8 µM |  |
| CSPGAKVRC [UNO] |  |  |  |  | able to carry drug-loaded nanoparticles targeting CD206 into xenotransplanted tumors |
